Assay results published in article doi:10.1101/2024.11.06.622243, “The MRAP2 accessory protein directly interacts with melanocortin-3 receptor to enhance signaling” (bioRxiv, 2024).

Columns and labels:
[1] = molecular target: the molecule itself; assay: single-molecule pull-down (SiMPull); one-colour SiMPull with photobleaching step analysis: HA-Halo-tagged protein labelled on HEK293 cells with membrane-impermeable CA-Sulfo646, lysed in 0.5% LMNG/0.05% CHS, immobilised by biotinylated anti-HA antibody on a PEG-passivated slide, TIRF imaging
[2] = molecular target: T1, HA-Halo-MC3R (melanocortin-3 receptor) (human, UniProt P41968 1-323, CA-Sulfo646 dye on the Halo tag); assay: single-molecule pull-down (SiMPull); two-colour SiMPull: HA-Halo-tagged bait (CA-Sulfo646) and FLAG-CLIP-tagged prey (BC-DY547) co-expressed in HEK293 cells (300 ng Halo and 600 ng CLIP plasmid), labelled before lysis in 0.5% LMNG/0.05% CHS, bait immobilised by biotinylated anti-HA antibody, co-localisation and photobleaching steps by TIRF; conditions: partners not purified
T1 construct: human melanocortin-3 receptor (MC3R); pRK5 construct with an N-terminal signal peptide from rat mGluR2 before the HA and Halo tags; also called ss-HA-Halo-MC3R; source: HEK293, transiently transfected, in lysate (LMNG-CHS); not shown: HA, N-terminal, kept; Halo, N-terminal, kept
T1 sequence (P41968 whole entry): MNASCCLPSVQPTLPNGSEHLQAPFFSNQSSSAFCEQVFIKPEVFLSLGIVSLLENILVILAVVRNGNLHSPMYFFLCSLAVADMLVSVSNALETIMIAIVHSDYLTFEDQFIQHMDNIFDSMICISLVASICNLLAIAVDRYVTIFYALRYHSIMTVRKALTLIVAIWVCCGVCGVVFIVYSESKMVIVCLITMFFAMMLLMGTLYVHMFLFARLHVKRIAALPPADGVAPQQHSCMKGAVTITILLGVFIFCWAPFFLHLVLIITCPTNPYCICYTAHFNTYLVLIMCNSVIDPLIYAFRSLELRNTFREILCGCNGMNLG

Binder	stoichiometry N [1]	stoichiometry N [2] [MRAP2 per MC3R]
mGluR2 (receptor, UniProt P31421 19-872, looked up, metabotropic glutamate receptor 2 (mGluR2), control of the SiMPull photobleaching analysis; also called known dimeric GPCR mGluR2; source: HEK293, transfected, in lysate) EGPAKKVLTLEGDLVLGGLFPVHQKGGPAEECGPVNEHRGIQRLEAMLFALDRINRDPHLLPGVRLGAHILDSCSKDTHALEQALDFVRASLSRGADGSRHICPDGSYATHSDAPTAVTGVIGGSYSDVSIQVANLLRLFQIPQISYASTSAKLSDKSRYDYFARTVPPDFFQAKAMAEILRFFNWTYVSTVASEGDYGETGIEAFELEARARNICVATSEKVGRAMSRAAFEGVVRALLQKPSARVAVLFTRSEDARELLAATQRLNASFTWVASDGWGALESVVAGSERAAEGAITIELASYPISDFASYFQSLDPWNNSRNPWFREFWEERFHCSFRQRDCAAHSLRAVPFEQESKIMFVVNAVYAMAHALHNMHRALCPNTTHLCDAMRPVNGRRLYKDFVLNVKFDAPFRPADTDDEVRFDRFGDGIGRYNIFTYLRAGSGRYRYQKVGYWAEGLTLDTSFIPWASPSAGPLPASRCSEPCLQNEVKSVQPGEVCCWLCIPCQPYEYRLDEFTCADCGLGYWPNASLTGCFELPQEYIRWGDAWAVGPVTIACLGALATLFVLGVFVRHNATPVVKASGRELCYILLGGVFLCYCMTFVFIAKPSTAVCTLRRLGLGTAFSVCYSALLTKTNRIARIFGGAREGAQRPRFISPASQVAICLALISGQLLIVAAWLVVEAPGTGKETAPERREVVTLRCNHRDASMLGSLAYNVLLIALCTLYAFKTRKCPENFNEAKFIGFTMYTTCIIWLAFLPIFYVTSSDYRVQTTTMCVSVSLSGSVVLGCLFAPKLHIILFQPQKNVVSHRAPTSRFGSAAPRASANLGQGSGSQFVPTVCNGREVVDSTTSSL	2	–
FLAG-CLIP-MRAP2 (melanocortin-2 receptor accessory protein-2) (natural protein, human, UniProt Q96G30 1-205, looked up, BC-DY547 dye on the CLIP tag, human melanocortin-2 receptor accessory protein 2 (MRAP2); pRK5 construct with an N-terminal signal peptide from rat mGluR2 before the tags; also called ss-FLAG-CLIP-MRAP2; source: HEK293, transiently transfected, in lysate (LMNG-CHS); not shown: FLAG, N-terminal, kept; CLIP, N-terminal, kept) MSAQRLISNRTSQQSASNSDYTWEYEYYEIGPVSFEGLKAHKYSIVIGFWVGLAVFVIFMFFVLTLLTKTGAPHQDNAESSEKRFRMNSFVSDFGRPLEPDKVFSRQGNEESRSLFHCYINEVERLDRAKACHQTTALDSDVQLQEAIRSSGQPEEELNRLMKFDIPNFVNTDQNYFGEDDLLISEPPIVLETKPLSQTSHKDLD	–	1
